Test results published in publication PMC8849298, “Structure of ATP synthase from ESKAPE pathogen Acinetobacter baumannii” (Science Advances, 2022).

T1: A. baumannii F1Fo-ATP synthase γ-subunit (Acinetobacter baumannii ATCC 17978 …, UniProt A3M143 1-289)
T1 construct: ATP synthase subunit gamma, Acinetobacter baumannii ATCC 17978; source: endogenous, A. baumannii ATCC 17978 membranes
T1 sequence (looked up): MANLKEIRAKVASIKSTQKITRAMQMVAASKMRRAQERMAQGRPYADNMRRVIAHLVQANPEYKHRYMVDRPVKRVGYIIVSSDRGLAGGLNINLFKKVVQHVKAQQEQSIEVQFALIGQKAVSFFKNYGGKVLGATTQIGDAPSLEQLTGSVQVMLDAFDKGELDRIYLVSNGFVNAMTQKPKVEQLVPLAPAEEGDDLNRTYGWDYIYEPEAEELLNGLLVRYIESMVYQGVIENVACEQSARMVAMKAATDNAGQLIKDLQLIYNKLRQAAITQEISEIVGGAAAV

B1: A. baumannii F1Fo-ATP synthase β-subunit, StrepII-tagged (natural protein, Acinetobacter baumannii, UniProt A3M144 1-464, looked up)
chain: MSSGRIIQIIGAVIDVEFERTSVPKIYDALQVDGTETTLEVQQQLGDGVVRTIAMGSTEGLKRGLTVTSTNAPISVPVGTATLGRIMDVLGRPIDEAGPVATEERLPIHRQAPSYAEQAASTDLLETGIKVIDLLCPFAKGGKVGLFGGAGVGKTVNMMELINNIAKAHSGLSVFAGVGERTREGNDFYHEMKDSNVLDKVAMVYGQMNEPPGNRLRVALTGLTMAEYFRDEKDENGKGRDVLLFVDNIYRYTLAGTEVSALLGRMPSAVGYQPTLAEEMGVLQERITSTKSGSITSIQAVYVPADDLTDPSPATTFAHLDATVVLSRDIASSGIYPAIDPLDSTSRQLDPLVVGQEHYEIARAVQNVLQRYKELKDIIAILGMDELAEEDKLVVYRARKIQRFFSQPFHVAEVFTGAPGKLVPLKETIRGFKGLLAGEYDHIPEQAFYMVGGIDEVIAKAEKL
notes: ATP synthase subunit beta, Acinetobacter baumannii; gene at 3815454-3814060 of GenBank CP053098.1, amplified from genomic DNA with a StrepII tag coded at the 5' end; Three copies stand in the complex; also called βDP*; βTP; not shown: StrepII, N-terminal, kept

Legend:
Experiment in all cases: cryo-EM structure; single-particle cryo-EM of the whole F1Fo-ATP synthase purified from A. baumannii membranes via the StrepII tag on β and reconstituted into peptidiscs; three rotational states; buffer A (50 mM Hepes pH 6.8, 150 mM KCl, 5 mM MgCl2) without detergent
[1] = biological target: the molecule itself
[2] = biological target: T2, A. baumannii F1Fo-ATP synthase a-subunit (Acinetobacter baumannii ATCC 17978 …, UniProt A3M137 1-291); settings: both partners purified
T2 construct: ATP synthase subunit a, Acinetobacter baumannii ATCC 17978; S5A; also called proton-conducting a-subunit; source: endogenous, A. baumannii ATCC 17978 membranes

[3] = biological target: T1, A. baumannii F1Fo-ATP synthase γ-subunit; settings: both partners purified
[4] = biological target: T3, A. baumannii F1Fo-ATP synthase α-subunit (Acinetobacter baumannii ATCC 17978 …, UniProt A3M142 1-514); settings: both partners purified
T3 construct: ATP synthase subunit alpha, Acinetobacter baumannii ATCC 17978; Three copies stand in the complex (α3β3γδεab2c10); also called αDP; αE; source: endogenous, A. baumannii ATCC 17978 membranes

[5] = biological target: B1; settings: both partners purified

T3 sequence (A3M142 whole entry): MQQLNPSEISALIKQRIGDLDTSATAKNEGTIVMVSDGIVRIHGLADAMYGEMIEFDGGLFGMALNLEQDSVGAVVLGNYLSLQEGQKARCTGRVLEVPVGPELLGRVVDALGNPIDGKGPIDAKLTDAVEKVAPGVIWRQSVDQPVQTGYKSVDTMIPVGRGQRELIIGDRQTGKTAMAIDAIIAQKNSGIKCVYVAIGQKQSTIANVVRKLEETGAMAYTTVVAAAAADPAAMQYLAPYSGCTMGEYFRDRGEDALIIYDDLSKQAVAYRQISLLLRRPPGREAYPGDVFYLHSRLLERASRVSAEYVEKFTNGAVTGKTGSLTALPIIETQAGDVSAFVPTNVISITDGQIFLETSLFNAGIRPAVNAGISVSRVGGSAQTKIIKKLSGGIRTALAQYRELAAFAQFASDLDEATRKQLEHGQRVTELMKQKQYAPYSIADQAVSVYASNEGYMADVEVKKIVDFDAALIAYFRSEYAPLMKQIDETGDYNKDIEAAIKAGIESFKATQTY
T2 sequence (A3M137 whole entry): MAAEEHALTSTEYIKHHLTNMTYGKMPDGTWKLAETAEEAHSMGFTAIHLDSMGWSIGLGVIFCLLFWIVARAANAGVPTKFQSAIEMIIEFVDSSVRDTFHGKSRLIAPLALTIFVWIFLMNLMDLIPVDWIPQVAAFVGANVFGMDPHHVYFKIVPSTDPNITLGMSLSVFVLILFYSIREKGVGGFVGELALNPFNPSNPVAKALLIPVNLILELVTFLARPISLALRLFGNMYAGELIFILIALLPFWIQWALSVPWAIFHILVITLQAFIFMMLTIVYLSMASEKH

Binder	stoichiometry N [1]	binding result [2]	binding result [3]	binding result [4]	binding result [5]
A. baumannii F1Fo-ATP synthase c-subunit (c10 ring) (natural protein, UniProt A3M139 1-81, looked up, ATP synthase subunit c, Acinetobacter baumannii ATCC 17978; also called c-ring; source: endogenous, A. baumannii ATCC 17978 membranes; copies: 10) MELTLGLVAIASAILIAFGALGTAIGFGLLGGRFLEAVARQPELAPQLQTRMFLIAGLLDAVPMIGVGIGLFFIFANPFVG	10	binds	–	–	–
A. baumannii F1Fo-ATP synthase ε-subunit (natural protein, UniProt A3M145 1-139, looked up, ATP synthase subunit epsilon, Acinetobacter baumannii ATCC 17978; also called subunit ε; source: endogenous, A. baumannii ATCC 17978 membranes) MATMQCDVVSVKESIYSGAVTMLIAKGAGGELGILPGHAPLVTLLQPGPIRVLLENGTEEIVYVSGGVLEVQPHVVTVLADTAIRADNLDEAAILEARKNAEQLLANQKSDLDSAAALAALAETAAQLETIRKIKNRAQ	–	–	binds	binds	binds
B1	–	–	–	binds	–
